The target in experiment [1] is NLuc-labeled chimeric receptor GIP/GLP-1R (GIPR with the C-terminal tail of GLP-1R) (human). Kind of experiment: FRET or BRET; BRET in HEK-293 cells co-transfected 1:1 with NLuc-labeled receptor and NES-Venus-mini-G protein; cells in HBSS, agonist (GLP-1 or GIP) for 15 min, coelenterazine h 1 μM; BRET ratio as fold-change from non-stimulated, dose-response of the agonist. Background: BRET reads energy transfer from a luciferase to a nearby fluorophore.

Experiment [2] concerns the target NLuc-labeled human GLP-1R (human) (UniProt P43220). The experiment is described as above.
Experiment [3] concerns the target NLuc-labeled chimeric receptor GLP-1/GIPR (GLP-1R with the C-terminal tail of GIPR) (human). The description is as above.
Experiment [4] has as its target NLuc-labeled human GIPR (human) (UniProt P48546). The description is as above.
For experiment [5] the following is noted: subjects with obesity, phase 2 study, ref Véniant et al., 2024, Amgen; cited from earlier work. The text has this: (§1) [Graaf et al., 2016]). Both receptors are expressed in pancreatic β-cells and other cell types, resulting in numerous pleiotropic effects of their peptide agonists. […] [Liu et al., 2022]; [Drucker and Holst, 2023]). Studies show ...
The next experiment relates to GIPR. To be noted: initially considered an antagonist; ref Al-Sabah et al., 2014a; Sparre-Ulrich et al., 2016; cited from earlier work.
Source text: as §1

For experiment [6], the system named is animal models of diabetes and obesity. To be noted: ref McClean et al., 2007, Gault et al.; cited from earlier work.
Source text: as §1

The test system of experiment [7] is INS-1 832/3 cells. To be noted: ref Manchanda et al. (2023); cited from earlier work.
The next experiment relates to subjects with T2DM. Also noted: method as in Nauck et al., 1993; Gasbjerg et al., 2020. The following applies: pharmacological doses, ref Nauck et al., 1993, Gasbjerg et al., 2020; cited from earlier work.
For experiment [8], the system named is INS-1 832/3 cells. The following applies: ref Manchanda et al. (2023); cited from earlier work. The source holds these as a separate data set.
Another experiment has as its system GLP-1R. To be noted: various cell types; ref Jorgensen et al., 2005; Manchanda et al., 2023; cited from earlier work. The text has this: For many GPCRs, homologous desensitization first requires the phosphorylation of the active state of the receptor by the G protein-coupled receptor kinase (GRK) family of kinases. This is then followed by the binding of arrestin, which sterically hinders coupling to G proteins, effectively desensitizing the receptor ([Krasel et al., 2005]). Arrestin can also act as a scaffolding protein, linking the receptor to the cellular endocytic machinery and facilitating internalization ([Ferguson, 2001]). It is now appreciated that arrestin can also act as a signaling molecule in its own right, linking ...

The target of experiment [9] is RLuc8-labeled chimeric receptor GLP-1/GIPR (GLP-1R with the C-terminal tail of GIPR) (human). In words: FRET or BRET; BRET in HEK-293 cells co-transfected 1:2 with RLuc8-labeled receptor and Arr3-SYFP2; cells in HBSS, agonist (GLP-1 or GIP) for 15 min, coelenterazine h 1 μM; BRET ratio as fold-change from non-stimulated, dose-response of the agonist.
Experiment [10] concerns the target SYFP2-labeled chimeric receptor GLP-1/GIPR (GLP-1R with the C-terminal tail of GIPR) (human). Kind of experiment: FRET or BRET; BRET in HEK-293 cells co-transfected 1:2 with SYFP2-labeled receptor and Arr3-NLuc; cells in HBSS, agonist (GLP-1 or GIP) for 15 min, coelenterazine h 1 μM; BRET ratio as fold-change from non-stimulated, dose-response of the agonist.

Chain of NLuc-labeled human GIPR (human) (P48546 22-466): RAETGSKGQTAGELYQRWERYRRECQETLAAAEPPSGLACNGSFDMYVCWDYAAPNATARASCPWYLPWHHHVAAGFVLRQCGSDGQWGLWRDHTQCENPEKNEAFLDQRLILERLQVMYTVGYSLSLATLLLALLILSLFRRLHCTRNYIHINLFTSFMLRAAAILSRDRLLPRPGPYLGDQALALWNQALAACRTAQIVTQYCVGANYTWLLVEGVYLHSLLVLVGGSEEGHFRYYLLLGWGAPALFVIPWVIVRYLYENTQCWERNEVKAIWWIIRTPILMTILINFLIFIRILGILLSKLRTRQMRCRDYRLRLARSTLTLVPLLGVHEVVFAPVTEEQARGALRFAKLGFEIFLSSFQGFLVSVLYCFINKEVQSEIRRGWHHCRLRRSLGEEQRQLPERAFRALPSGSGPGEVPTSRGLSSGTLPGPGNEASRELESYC
Chain of NLuc-labeled human GLP-1R (human) (P43220 24-463): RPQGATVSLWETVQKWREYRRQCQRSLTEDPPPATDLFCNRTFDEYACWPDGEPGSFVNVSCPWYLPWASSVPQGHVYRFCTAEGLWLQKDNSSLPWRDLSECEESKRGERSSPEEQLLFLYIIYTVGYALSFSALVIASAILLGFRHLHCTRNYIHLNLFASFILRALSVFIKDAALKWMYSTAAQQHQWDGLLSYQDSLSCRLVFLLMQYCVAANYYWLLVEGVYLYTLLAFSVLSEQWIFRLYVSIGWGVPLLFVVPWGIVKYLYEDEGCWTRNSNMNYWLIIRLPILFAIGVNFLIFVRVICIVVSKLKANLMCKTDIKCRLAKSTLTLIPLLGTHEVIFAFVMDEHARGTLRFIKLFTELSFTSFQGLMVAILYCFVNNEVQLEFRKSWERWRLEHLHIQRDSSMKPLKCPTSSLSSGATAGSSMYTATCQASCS

In the case of NES-Venus-mGαq, the pEC50 of the agonist GIP for recruitment is 9 -log EC50/M in experiment [1] and 8.6 -log EC50/M in experiment [4]. Moreover, the pEC50 of the agonist GLP-1 for recruitment is 7.3 -log EC50/M in experiment [2] and 7.1 -log EC50/M in experiment [3].
On to “Maridebart cafraglutide: fully human monoclonal anti-human GIPR antagonist antibody conjugated to two GLP-1R agonist peptides”, for which, in experiment [5], the Weight loss entry is “robust weight loss”.
NES-Venus-mGαs: the pEC50 of the agonist GIP for recruitment in [1] and in [4] was 8.9 -log EC50/M throughout. Moreover, the pEC50 of the agonist GLP-1 for recruitment in [2] was 7.6 -log EC50/M; in [3], 7.5 -log EC50/M.
Turning to “(Pro3)GIP: an analog of GIP with a glutamic-acid-to-proline substitution at position 3 (YAPGTFISDYSIAMDKIHQQDFVNWLLAQKGKKNDWKHNITQ; Gastric inhibitory polypeptide; UniProt P09681 52-93, looked up, variant E3P)”, the “Agonism at GIP receptor” value in the experiment with GIPR is “low-potency agonist”. In experiment [6], the “Glucose homeostasis and weight gain” value is “improving glucose homeostasis and preventing weight gain”.
In the case of `CC[C@H](C)[C@H](NC(=O)[C@H](Cc1ccccc1)NC(=O)[C@H](CCC(=O)O)NC(=O)[C@H](CCCCN)NC(=O)[C@H](C)NC(=O)[C@H](C)NC(=O)[C@H](CCC(N)=O)NC(=O)CNC(=O)[C@H](CCC(=O)O)NC(=O)[C@H](CC(C)C)NC(=O)[C@H](Cc1ccc(O)cc1)NC(=O)[C@H](CO)NC(=O)[C@H](CO)NC(=O)[C@@H](NC(=O)[C@H](CC(=O)O)NC(=O)[C@H](CO)NC(=O)[C@@H](NC(=O)[C@H](Cc1ccccc1)NC(=O)[C@@H](NC(=O)CNC(=O)[C@H](CCC(=O)O)NC(=O)[C@H](C)NC(=O)[C@@H](N)Cc1c[nH]cn1)[C@@H](C)O)[C@@H](C)O)C(C)C)C(=O)N[C@@H](C)C(=O)N[C@@H](Cc1c[nH]c2ccccc12)C(=O)N[C@@H](CC(C)C)C(=O)N[C@H](C(=O)N[C@@H](CCCCN)C(=O)NCC(=O)N[C@@H](CCCNC(=N)N)C(N)=O)C(C)C` [GLP-1, Glucagon-like peptide-1], in the experiment on INS-1 832/3 cells [7], the “GIP- vs GLP-1-stimulated cAMP production” value is “no difference between GIP- and GLP-1-stimulated cAMP production”. The “Overcoming the impaired incretin effect in T2DM” value with subjects with T2DM is listed as “can overcome this impairment in subjects with T2DM”. Further, the “GIP- vs GLP-1-stimulated insulin release” value in the experiment with INS-1 832/3 cells [8] was “no difference between GIP- and GLP-1-stimulated cAMP production or insulin release”. In addition, in the experiment with GLP-1R, the “Arrestin recruitment to GLP-1R, in words” value is “results in the rapid recruitment of arrestin”.
In the case of “SYFP2-labeled arrestin3 (from UniProt P32121 1-409) (natural protein)”, the pEC50 of the agonist GLP-1 for recruitment in experiment [9] was 7.18 -log EC50/M.
As to “NLuc-labeled arrestin3 (from UniProt P32121 1-409) (natural protein)”, the pEC50 of the agonist GLP-1 for recruitment in experiment [10] is 7.3 -log EC50/M.

(Values after paper PMC11975949 (Frontiers in Pharmacology, 2025).)
